These results are taken from US20120301476A1 (TORAY INDUSTRIES, published 2012).

For assay [1], the target named is T1, human CAPRIN-1 protein on the cell surfaces of human cancer cell lines and in human cancer tissues (human, UniProt Q14444 2-709).
T1 construct: whole, on cells; Endogenous protein of human cancer cell lines (flow cytometry, ADCC, CDC) and of human cancer tissue sections (immunohistochemistry); also called CAPRIN-1 protein expressed on the cell membrane surfaces
T1 sequence (looked up): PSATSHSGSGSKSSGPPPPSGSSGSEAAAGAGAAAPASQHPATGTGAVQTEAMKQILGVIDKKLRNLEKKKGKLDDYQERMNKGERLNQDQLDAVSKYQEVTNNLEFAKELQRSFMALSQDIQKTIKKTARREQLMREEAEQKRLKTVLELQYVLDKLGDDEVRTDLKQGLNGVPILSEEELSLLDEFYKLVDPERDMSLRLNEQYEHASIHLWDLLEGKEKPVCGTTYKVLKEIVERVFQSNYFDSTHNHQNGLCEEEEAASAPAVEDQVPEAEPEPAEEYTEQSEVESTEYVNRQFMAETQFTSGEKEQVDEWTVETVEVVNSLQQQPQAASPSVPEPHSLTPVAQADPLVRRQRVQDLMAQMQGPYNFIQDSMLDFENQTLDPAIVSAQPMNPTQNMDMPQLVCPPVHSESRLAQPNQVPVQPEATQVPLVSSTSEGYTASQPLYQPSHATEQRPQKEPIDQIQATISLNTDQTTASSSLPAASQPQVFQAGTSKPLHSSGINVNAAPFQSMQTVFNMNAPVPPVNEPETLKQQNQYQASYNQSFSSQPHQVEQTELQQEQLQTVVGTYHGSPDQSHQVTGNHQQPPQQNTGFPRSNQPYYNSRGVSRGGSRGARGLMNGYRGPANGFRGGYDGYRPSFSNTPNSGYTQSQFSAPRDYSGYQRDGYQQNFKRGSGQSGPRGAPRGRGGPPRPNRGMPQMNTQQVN
Kind of assay: flow cytometry on the listed human cancer cell lines, culture supernatant, against negative control. The procedure:
10⁶ cells of each cell line were centrifuged in a 1.5 ml microcentrifuge tube. Each cell culture supernatant (100 μl) of CHO-K1 cells containing #1 obtained in (2) above and hybridomas producing #2, #3, #4, #5, and #6 obtained in Example 3 was added and then left to stand on ice for 1 hour. After washing with PBS, a FITC-labeled goat anti-human IgG (H+L) antibody (SouthernBiotech) and a FITC-labeled anti-mouse IgG (H+L) antibody (Invitrogen) diluted 500-fold with PBS containing 0.1% FBS were added and then left to stand on ice for 1 hour. After washing with PBS, fluorescence intensity was measured using a FACS Calibur (Becton, Dickinson). Meanwhile, procedures similar to the above were performed using a culture supernatant of CHO-K1 cells into which no antibody gene had been introduced and medium for culturing hybridomas, so that a negative control sample was prepared. […] Specifically, when the antibody #1 was used, fluorescence intensity was enhanced to 4700% in the case of SK-BR-3 and 5500% in the case of MDA-MB-231V. Also, when the antibodies #2, #3, #4, #5, and #6 were used, fluorescence intensity was enhanced. […] The percentage of enhancement in the above fluorescence intensity was expressed as percentage of increase in mean fluorescence intensity (MFI level) in each type of cell and calculated by the following formula.

In assay [2] the target is T2, peptide of SEQ ID NO: 69 (partial sequence in the polypeptide of SEQ ID NO: 37) (human).
T2 peptide: QQPQAASPSVPE
Kind of assay: ELISA on immobilised synthetic peptides. How it is done: Each peptide was dissolved in 0.1M sodium carbonate buffer (pH 9.6) at a concentration of 30 μg/ml, added to a 96-well plate (Nunc, Product No. 436006) at 100 μl per well, and then left to stand at 4° C. overnight. The solution was discarded, 10 mM ethanolamine/0.1M sodium carbonate buffer (PH 9.6) was added at 200 μl per well, and then the plate was left to stand at room temperature for 1 hour. The solution was discarded, the plate was washed twice with PBS (PBST) containing 0.5% Tween20, so that the plate with each peptide immobilized thereto was prepared.
A cell culture supernatant containing the human-chicken chimeric monoclonal antibody (#1) and the mouse monoclonal antibodies (#2, #3, #4, #5, and #6) obtained in Example 4 (2) was added to the plate at 50 μl per well. After 1 hour of shaking at room temperature, the solution was removed, and then the plate was washed three times with PBST. Next, an HRP-labeled anti-human IgG (Invitrogen) antibody diluted 3000- to 4000-fold with PBST (a secondary antibody solution) was added to each well of the human-chicken chimeric monoclonal antibody and an HRP-labeled anti-mouse IgG (Invitrogen) antibody diluted 3000- to 4000-fold with PBST (a secondary antibody solution) was added to each well of the mouse monoclonal antibody, at 50 μl per well, and then the solution was removed, followed by six times of washing with PBST.
A TMB substrate solution (Thermo) was added at 100 μl per well, and the plate was left to stand for 15 to 30 minutes for coloring reaction. After color development, 1N sulfuric acid was added at 100 μl per well to stop the reaction and then absorbances at 450 nm and 595 nm were measured using an absorption spectrometer. As a result, the polypeptide of SEQ ID NO: 37 was identified as a CAPRIN-1 partial sequence that is recognized by all of the anti-CAPRIN-1 monoclonal antibodies #1 to #6. Furthermore, the peptide of SEQ ID NO: 69 was identified as a partial sequence in the above polypeptide of SEQ ID NO: 37, which is recognized by the monoclonal antibodies #1, #4, and #5. […]
(An ELISA detects its analyte on a solid surface through an enzyme-linked reagent.)

B1: human-chicken chimeric antibody #1 having the chicken monoclonal antibody #1 variable region (antibody, V domains shown)
VH: AVTLDESGGGLQMSRGGLSLVCKASGFDFSSYQMNWIRQAPGKGLEFVAAINKFGNSTGHGAAVKGRVTISRDNGQSTVRLQLNNLRAEDTAIYFCTKHAYGYCGSGTWCAAGEIDAWGHGTEVIVSS
VL: QAASTQPSSVSANPGETVEITCSGGGSYSYGWFQQKSPGSAPVTVIYYNNKRPSDIPSRFSGSKSGSTGTLTITGVQADDEAVYYCGSGDSTDTAVFGAGTTLTVLG
notes: also called anti-CAPRIN-1 antibody #1; human-chicken chimeric monoclonal antibody (#1); not shown: human IgG1 H-chain constant region; human IgG1 L-chain constant region
On to B1, for which the “percentage of increase in mean fluorescence intensity” value in assay [1] was no less than 20%. Also, in assay [2], the binding result is on record as “binds”.
